Where only a bound is given, the exact number is not on record here.

Experimental findings from patent publication US20200024330A1 are described below.

Common to all, as to experiment: cell-based or functional assay
Experiment [1] deals with HIV-1 92UG024 envelope glycoprotein (Env) on pseudovirus (HIV-1).
The target of experiment [2] is HIV-1 MGRM-D-018 envelope glycoprotein (Env) on pseudovirus (HIV-1).
Experiment [3] has as its target HIV-1 92TH021 envelope glycoprotein (Env) on pseudovirus (HIV-1).
Experiment [4] addresses HIV-1 Env of isolate 92TH021 (HIV-1).
Experiment [5] addresses HIV-1 Env of isolate JRCSF (HIV-1) (UniProt P20871).
Experiment [6] addresses HIV-1 Env of isolate MGRM-C-026 (HIV-1).
The target in experiment [7] is HIV-1 Env of isolate MGRM-F1-004 (HIV-1).
The target of experiment [8] is HIV-1 Env of isolate NL43 (HIV-1).
Experiment [9] concerns the target HIV-1 Env of isolate MGRM-F1-017 (HIV-1).
Experiment [10] concerns the target HIV-1 Env of isolate QH0692.42 (HIV-1).
Experiment [11] addresses HIV-1 Env of isolate MGRM-D-018 (HIV-1).
Experiment [12] concerns the target HIV-1 Env of isolate MGRM-F1-013 (HIV-1).
The target in experiment [13] is HIV-1 Env of isolate MGRM-D-012 (HIV-1).
Experiment [14] deals with HIV-1 Env of isolate MGRM-F1-021 (HIV-1).
For experiment [15], the target named is HIV-1 Env of isolate MGRM-F1-020 (HIV-1).
The target in experiment [16] is HIV-1 Env of isolate MGRM-D-013 (HIV-1).
The target of experiment [17] is HIV-1 Env of isolate SC422661.8 (HIV-1).
The target of experiment [18] is HIV-1 Env of isolate MGRM-D-011 (HIV-1).
The target of experiment [19] is HIV-1 Env of isolate MGRM-F1-006 (HIV-1).
The target of experiment [20] is HIV-1 Env of isolate MGRM-D-024 (HIV-1).
For experiment [21], the target named is HIV-1 Env of isolate MGRM-F1-012 (HIV-1).
Experiment [22] has as its target HIV-1 Env of isolate MGRM-Chronic-B-010 (HIV-1).
Experiment [23] addresses HIV-1 Env of isolate MGRM-Chronic-B-024 (HIV-1).
Experiment [24] concerns the target HIV-1 Env of isolate MGRM-Chronic-B-017 (HIV-1).
The target in experiment [25] is HIV-1 Env of isolate 98IN022 (HIV-1).
Experiment [26] deals with HIV-1 Env of isolate MGRM-D-019 (HIV-1).
For experiment [27], the target named is HIV-1 Env of isolate 93MW959 (HIV-1).
Experiment [28] concerns the target HIV-1 Env of isolate MGRM-F1-018 (HIV-1).
For experiment [29], the target named is HIV-1 Env of isolate TRJ04551.58 (HIV-1).
For experiment [30], the target named is HIV-1 Env of isolate TRO.11 (HIV-1).
Experiment [31] has as its target HIV-1 Env of isolate SF162 (HIV-1) (UniProt P19550).
The target of experiment [32] is HIV-1 Env of isolate MGRM-D-021 (HIV-1).
Experiment [33] addresses HIV-1 Env of isolate VLGCB3 (HIV-1).
Experiment [34] has as its target HIV-1 Env of isolate THR0.18 (HIV-1).
Experiment [35] addresses HIV-1 Env of isolate MGRM-F1-010 (HIV-1).
Experiment [36] concerns the target HIV-1 Env of isolate MGRM-Chronic-B-023 (HIV-1).
In experiment [37] the target is HIV-1 Env of isolate MGRM-D-026 (HIV-1).
Experiment [38] has as its target HIV-1 Env of isolate MGRM-Chronic-B-020 (HIV-1).
Experiment [39] concerns the target HIV-1 Env of isolate MGRM-D-028 (HIV-1).
The target of experiment [40] is HIV-1 Env of isolate MGRM-F1-022 (HIV-1).
In experiment [41] the target is HIV-1 Env of isolate MGRM-D-016 (HIV-1).
Experiment [42] addresses HIV-1 Env of isolate MGRM-F1-023 (HIV-1).
The target of experiment [43] is HIV-1 Env of isolate MGRM-F1-014 (HIV-1).
The target of experiment [44] is HIV-1 Env of isolate 93IN905 (HIV-1).
Experiment [45] deals with HIV-1 Env of isolate MGRM-F1-015 (HIV-1).
Experiment [46] concerns the target HIV-1 Env of isolate MGRM-F1-008 (HIV-1).
Experiment [47] concerns the target HIV-1 Env of isolate MGRM-Chronic-B-012 (HIV-1).
Experiment [48] addresses HIV-1 Env of isolate MGRM-Chronic-B-018 (HIV-1).
For experiment [49], the target named is HIV-1 Env of isolate MGRM-Chronic-B-011 (HIV-1).
Experiment [50] concerns the target HIV-1 Env of isolate MGRM-F1-016 (HIV-1).
Experiment [51] concerns the target HIV-1 Env of isolate PVO.4 (HIV-1).
Experiment [52] addresses HIV-1 Env of isolate MGRM-D-029 (HIV-1).
In experiment [53] the target is HIV-1 Env of isolate MGRM-D-022 (HIV-1).
The target in experiment [54] is HIV-1 Env of isolate MGRM-D-014 (HIV-1).
Experiment [55] concerns the target HIV-1 Env of isolate MGRM-D-020 (HIV-1).
The target of experiment [56] is HIV-1 Env of isolate 97ZA012 (HIV-1).

Sequence of PGT-142 (antibody) (VH): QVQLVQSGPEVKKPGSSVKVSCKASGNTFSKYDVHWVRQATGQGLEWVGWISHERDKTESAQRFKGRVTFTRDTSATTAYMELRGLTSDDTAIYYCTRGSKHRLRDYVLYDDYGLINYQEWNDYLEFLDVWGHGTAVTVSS
Sequence of PGT-142 (antibody) (VL): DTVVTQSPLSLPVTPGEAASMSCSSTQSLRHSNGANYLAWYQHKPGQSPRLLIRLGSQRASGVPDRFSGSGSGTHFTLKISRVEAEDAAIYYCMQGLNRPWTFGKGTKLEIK
Sequence of PGT-141 (antibody) (VH): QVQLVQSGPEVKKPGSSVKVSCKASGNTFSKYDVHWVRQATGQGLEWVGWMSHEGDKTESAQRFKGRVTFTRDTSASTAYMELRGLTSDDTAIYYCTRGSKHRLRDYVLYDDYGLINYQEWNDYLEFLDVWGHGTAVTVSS
Sequence of PGT-141 (antibody) (VL): as the sequence (VL) above

With “1496_C09 (PG9) (TCN-109) monoclonal antibody”, the IC50, pseudovirus neutralization in [1] was 1.91 µg/mL; in experiment [2], 0.0444 µg/mL; in [3] it was 0.103 µg/mL.
Take “PGT-132 (B cell culture well 5113_D22) (antibody)”: the Primary Neutralization Index (B cell culture well 5113 D22) was 51 in [4], 3 in [5] and 6 in experiment [6].
As to “PGT-133 (B cell culture well 5117_E22) (antibody)”, the Primary Neutralization Index (B cell culture well 5117 E22) in experiment [4] is 42.5; in experiment [5], 3.6; in experiment [6], 3.4.
Regarding PGT-141 (antibody), the IC50, pseudovirus neutralization was 0.021 µg/mL in experiment [7]; 30.8 µg/mL in experiment [9]; greater than 50 µg/mL in experiment [11]; 0.043 µg/mL in experiment [12]; greater than 50 µg/mL in [13]; greater than 50 µg/mL in [14]. Further, the IC50, pseudovirus neutralization was 1.15 µg/mL in experiment [15]; 0.179 µg/mL in experiment [16]; greater than 50 µg/mL in [18]; 8.99 µg/mL in experiment [19]; greater than 50 µg/mL in experiment [20]; greater than 50 µg/mL in experiment [21]. For the same substance, the IC50, pseudovirus neutralization was 1.66 µg/mL in experiment [26]; 0.785 µg/mL in experiment [28]; greater than 50 µg/mL in experiment [32]; greater than 50 µg/mL in experiment [35]; 32.5 µg/mL in experiment [37]; less than 50 µg/mL in experiment [39]. For the same substance, the IC50, pseudovirus neutralization in experiment [40] is 0.114 µg/mL; in experiment [41] it was greater than 50 µg/mL; in experiment [42] it was 0.307 µg/mL; in experiment [43] it was 0.001 µg/mL; in experiment [45] it was greater than 50 µg/mL; in experiment [46] it was 0.193 µg/mL. Moreover, the IC50, pseudovirus neutralization is greater than 50 µg/mL in [50]; 0.057 µg/mL in experiment [52]; greater than 50 µg/mL in [53]; 0.01 µg/mL in experiment [54]; greater than 50 µg/mL in experiment [55]. In addition, the neutralization IC50 is greater than 50 µg/mL in experiment [8]; greater than 50 µg/mL in experiment [10]; 1.66 µg/mL in [17]; greater than 50 µg/mL in [22]; 0.011 µg/mL in experiment [23]; 0.147 µg/mL in [24]. Besides, the neutralization IC50 in experiment [25] is 0.001 µg/mL; in [27], 0.003 µg/mL; in [5], 0.009 µg/mL; in experiment [29], greater than 50 µg/mL; in experiment [30], 0.383 µg/mL; in [31], greater than 50 µg/mL. The neutralization IC50 in experiment [33] is greater than 50 µg/mL; in [34], 0.007 µg/mL; in experiment [36], 0.318 µg/mL; in experiment [38], greater than 50 µg/mL; in experiment [44], 0.001 µg/mL; in experiment [47], greater than 50 µg/mL. Besides, the neutralization IC50 is 0.572 µg/mL in experiment [48], 2.24 µg/mL in [49], 0.113 µg/mL in experiment [51] and greater than 50 µg/mL in experiment [56].
As for PGT-142 (antibody), the IC50, pseudovirus neutralization is 0.013 µg/mL in experiment [7]; 23.5 µg/mL in experiment [9]; greater than 50 µg/mL in [11]; 0.023 µg/mL in experiment [12]; greater than 50 µg/mL in experiment [13]; greater than 50 µg/mL in experiment [14]. Further, the IC50, pseudovirus neutralization is 0.824 µg/mL in experiment [15]; 0.221 µg/mL in experiment [16]; greater than 50 µg/mL in experiment [18]; 12.9 µg/mL in experiment [19]; greater than 50 µg/mL in experiment [20]; greater than 50 µg/mL in experiment [21]. Besides, the IC50, pseudovirus neutralization is 0.155 µg/mL in experiment [26]; 0.404 µg/mL in [28]; greater than 50 µg/mL in experiment [32]; greater than 50 µg/mL in [35]; 12.5 µg/mL in experiment [37]; greater than 50 µg/mL in [39]. The IC50, pseudovirus neutralization in experiment [40] is 0.04 µg/mL; in experiment [41], greater than 50 µg/mL; in [42] it was 0.602 µg/mL; in [43] it was 0.001 µg/mL; in experiment [45], greater than 50 µg/mL; in experiment [46], 0.124 µg/mL. In addition, the IC50, pseudovirus neutralization in experiment [50] was greater than 50 µg/mL; in experiment [52], 0.192 µg/mL; in experiment [53] it was greater than 50 µg/mL; in experiment [54], 0.005 µg/mL; in experiment [55], greater than 50 µg/mL. The neutralization IC50 is greater than 50 µg/mL in experiment [8]; greater than 50 µg/mL in [10]; 3.15 µg/mL in experiment [17]; greater than 50 µg/mL in experiment [22]; 0.005 µg/mL in [23]; 0.076 µg/mL in [24]. The neutralization IC50 was 0.001 µg/mL in experiment [25]; 0.001 µg/mL in experiment [27]; 0.01 µg/mL in [5]; greater than 50 µg/mL in experiment [29]; 0.27 µg/mL in [30]; greater than 50 µg/mL in experiment [31]. The neutralization IC50 is greater than 50 µg/mL in experiment [33]; 0.012 µg/mL in experiment [34]; 0.486 µg/mL in experiment [36]; greater than 50 µg/mL in experiment [38]; 0.001 µg/mL in experiment [44]; greater than 50 µg/mL in experiment [47]. Also, the neutralization IC50 in experiment [48] was 0.323 µg/mL; in experiment [49], 0.994 µg/mL; in [51] it was 0.066 µg/mL; in experiment [56], greater than 50 µg/mL.
